Assay [1] concerns HUVECs cell membrane. The assay is described as follows: Binding of biotin-βig-h3 to HUVECs surface (Western immunoblotting). More on the design: species or system human. Particulars: biotin-βig-h3, 4° C. 5 hours. The protocol: To confirm that HUVECs adhesion that is mediated by βig-h3 depends on αvβ3 integrin, the present inventors tested the binding affinity of βig-h3 in the presence of an antibody that specifically blocks the function of the integrin. This binding assay was performed according to the method described by Maile, L. A., et al., J. Biol. Chem., […].
First, HUVECs were suspended in medium at a density of 1×10^5 cells/ml. 1 ml of the cell suspension was preincubated with anti-αvβ3 antibody (LM609) or anti-αvβ5 antibody (P1F6) at 37° C. for 30 minutes. Thereafter, the preincubated cells were incubated with biotinylated βig-h3 (hereinafter, referred to as “biotin-βig-h3”) in a serum-free medium containing 0.1% BSA at 4° C. for 5 hours. The biotin-βig-h3 was added at concentrations of 1×10^−10, 1×10^−9 and 5×10^−9 μm, respectively. Then, the cells were washed three times with PBS buffer (pH 7.4), and dissolved at 4° C. in ice-cold buffer A (10 mM Tris-Cl, pH 7.4, 150 mM NaCl, 1% Nonidet P-40, 1% sodium deoxycholate, 0.5% SDS, 0.02% sodium azide, 1 mM EDTA, 1 mM phenylmethylsulfonyl fluoride). The cell lysates were clarified by centrifugation at 13,000 rpm for 30 minutes at 4° C. Equal amounts of protein were then separated by SDS-PAGE, 8% gel. The amount of biotin-βig-h3 was determined by Western immuno-blotting. […]

Assay [2] concerns HUVECs. Put plainly: HUVECs migration assay in transwell plate coated with βig-h3. It is filed as cell-based, human. Conditions: 10 μg/ml βig-h3 His-β-b coated; 6-8 hours; data not shown. The procedure: Firstly, to examine whether βig-h3 is involved in the migration of endothelial cells, the present inventors performed cell migration assay. The cell migration assay was performed in a transwell plate (8 μm pore size, Costar, Cambridge, Mass.). The undersurface of the membrane was coated with the recombinant βig-h3 His-β-b protein (10 μg/ml) prepared in Example 1 at 4° C., and then, blocked for 1 hour at room temperature with PBS buffer containing 2% BSA. Meanwhile, HUVECs were added with an anti-αvβ3 antibody (LM609) or an anti-αvβ5 antibody (P1F6) and preincubated at 37° C. for 30 minutes. A control was added with mouse IgG. Then, the HUVECs preincubated with the antibody were suspended in medium at a density of 3×10^5 cells/ml, and 0.1 ml of the cell suspension was added to the upper compartment of the filter. The cells were allowed to migrate at 37° C. for 6-8 hours.
Migration was terminated by removing the cells from the upper compartment of the filter with a cotton swab. The filters were fixed with 8% glutaraldehyde and stained with crystal violet. The extent of cell migration was determined by light microscope, and within each well, cell counting was done in nine randomly selected fields HPF (Microscopic high power fields, ×200).
Then, the present inventors examined whether the migration of endothelial cells is inhibited by the YH18 synthetic peptide. […]

In assay [3] the test system is pc/293 cells (HEK293 cells transfected with pcDNA3 vector). Put plainly: Adhesion of pc/293 cells to βig-h3. Particulars: plate coated with βig-h3; control transfectant. It is filed as cell-based, human. The procedure: To construct a human β3 integrin expression vector, RT-PCR was performed using a human placenta poly(A)^+ RNA as a template, thereby generating a 2.4-kb β3 cDNA (Chandrika, S. K. et al., J. Biol. Chem., 272:16390-16397, 1997). The amplified β3 cDNA was digested with HindIII/XbaI, and then cloned into the pcDNA3 vector (Invitrogen). The resulting vector was named “β3/pcDNA3”. Then, 1 μg of the β3/pcDNA3 vector was introduced into HEK293 cells (ATCC, catalog No. CRL 1573) using lipofectamin (Gibco). A control was introduced with a pcDNA3 vector containing no human β3 cDNA. Since all the vectors contain a G418 selection marker, the stable transfected cells were screened using 1 mg/ml of G418. The cell transfected with the β3/pcDNA3 vector was named “β3/293”, and the cell transfected with the pcDNA3 vector (control) was named “pc/293”. Each of the screened transfectants was incubated in DMEM (Dulbecco's Modified Eagle Medium) containing 10% FBS, streptomycin and penicillin. Then, cell adhesion assay was performed in the same manner as in Example 2.

B1: βig-h3: recombinant human βig-h3 protein that expresses all of four fas-1 domains; biotinylated form used in binding assay (protein)
chain: YQRKICGKSTVISYECCPGYEKVPGEKGCPAALPLSNLYETLGVVGSTTTQLYTDRTEKLRPEMEGPGSFTIFAPSNEAWASLPAEVLDSLVSNVNIELLNALRYHMVGRRVLTDELKHGMTLTSMYQNSNIQIHHYPNGIVTVNCARLLKADHHATNGVVHLIDKVISTITNNIQQIIEIEDTFETLRAAVAASGLNTMLEGNGQYTLLAPTNEAFEKIPSETLNRILGDPEALRDLLNNHILKSAMCAEAIVAGLSVETLEGTTLEVGCSGDMLTINGKAIISNKDILATNGVIHYIDELLIPDSAKTLFELAAESDVSTAIDLFRQAGLGNHLSGSERLTLLAPLNSVFKDGTPPIDAHTRNLLRNHIIKDQLASKYLYHGQTLETLGGKKLRVFVYRNSLCIENSCIAAHDKRGRYGTLFTMDRVLTPPMGTVMDVLKGDNRFSMLVAAIQSAGLTETLNREGVYTVFAPTNEAFRALPPRERSRLLGDAKELANILKYHIGDEILVSGGIGALVRLKSLQGDKLEVSLKNNVVSVNKEPVAEPDIMATNGVVHVITNVLQPPANRPQERGDELADSALEI
As to B1, in assay [1], the “binding of βig-h3 to HUVECs surface” value is given as “bound to HUVECs surface in a dose-dependent manner”. Further, the “migration of HUVECs in transwells whose undersurface was coated with βig-h3” value in assay [2] is “enhanced”. For the same molecule, the “adhesion of pc/293 cells to βig-h3” value in assay [3] is reported as “not adhered”.
